The target in assay [1] is T1, mouse transferrin receptor (mTfR) fused to EGFP, on CHO cells (mouse, UniProt Q62351 1-763).
T1 construct: whole, on cells; also called mouse TfR; CHO-mTfR-EGFP; not shown: EGFP
Put plainly: flow cytometry, CHO cells. On the procedure:
The binding properties of VHHs with affinity for the TfR from different species (i.e., human (h), mouse (m) and rhesus monkey (rh)) were tested using flow cytometry, and apparent affinities (Kd app) were determined. All experiments were performed in 96 well plates using 2×10⁵ cells/well, at 4° C. with shaking. CHO cell lines expressing the hTfR, mTfR or rhTfR fused to EGFP were saturated with PBS/BSA 2% solution during 30 min to avoid nonspecific binding, followed by incubation with purified VHHs at increasing concentrations for 1 hr. After one wash in PBS/BSA 2%, cells were incubated for 1 hr with an anti-6His tag antibody (mouse), washed twice with PBS/BSA 2%, and incubated for 1 hr with an Alexa647-conjugated anti-mouse secondary antibody. After two last washes in PBS/BSA 2%, cells were fixed by incubation for 15 min with PBS/PFA 2%, washed once with PBS and finally resuspended in PBS. Fluorescence levels were assessed using an Attune NxT flow cytometer (Thermo Fisher Scientific). Experimental data were fitted with GraphPad Prism® software using a nonlinear fit to determine the apparent Kd constants. […] Table 5 hereafter summarizes apparent Kd obtained for the tested VHHs.

The target of assay [2] is T2, human transferrin receptor (hTfR) fused to EGFP, on CHO cells (human, UniProt P02786 1-760).
T2 construct: whole, on cells; also called human TfR; CHO-hTfR-EGFP; not shown: EGFP from pEGFP-C1 vector, fused to the N-terminal (intracellular) end of hTfR
T2 sequence (P02786 whole entry, the tested form may be a part): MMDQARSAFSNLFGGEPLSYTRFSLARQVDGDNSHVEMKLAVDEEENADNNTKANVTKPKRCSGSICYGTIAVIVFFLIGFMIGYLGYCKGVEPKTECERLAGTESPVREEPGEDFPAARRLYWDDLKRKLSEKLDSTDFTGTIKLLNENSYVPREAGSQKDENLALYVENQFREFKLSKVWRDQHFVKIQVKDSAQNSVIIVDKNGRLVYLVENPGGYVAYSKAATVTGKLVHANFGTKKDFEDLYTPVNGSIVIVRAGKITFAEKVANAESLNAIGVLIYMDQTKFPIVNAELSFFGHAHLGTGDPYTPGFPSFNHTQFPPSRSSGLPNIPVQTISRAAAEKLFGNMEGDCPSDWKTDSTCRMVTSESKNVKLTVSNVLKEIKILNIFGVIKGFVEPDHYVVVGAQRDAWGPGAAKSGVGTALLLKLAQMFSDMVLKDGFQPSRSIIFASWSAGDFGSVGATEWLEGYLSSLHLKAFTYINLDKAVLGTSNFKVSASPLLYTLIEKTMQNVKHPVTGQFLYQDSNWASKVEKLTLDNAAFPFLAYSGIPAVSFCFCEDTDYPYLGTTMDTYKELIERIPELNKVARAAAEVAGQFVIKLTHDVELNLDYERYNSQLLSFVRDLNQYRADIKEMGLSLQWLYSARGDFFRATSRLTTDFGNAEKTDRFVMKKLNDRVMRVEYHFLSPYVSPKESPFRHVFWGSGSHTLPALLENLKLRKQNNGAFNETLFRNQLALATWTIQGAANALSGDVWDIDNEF
Put plainly: apparent Kd, flow cytometry, CHO cells. The procedure, abridged: (§1)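 CHO cells expressing TfR-EGFP fusions, blocked in PBS/BSA 2%, then incubated with increasing VHH concentrations for 1 hr at 4° C. Bound VHH detected via anti-6His antibody and Alexa647 secondary, cells PFA-fixed, read by flow cytometry. Apparent Kd from nonlinear fit.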
(A flow cytometer gives signals particle by particle.)

Assay [3] concerns the target T3, human TfR ectodomain fused to a mouse IgG1 Fc fragment (human, UniProt P02786 89-760).
T3 construct: extracellular domain; ectodomain fused to the N-terminal end of the Fc, made in-house; not shown: mouse IgG1 Fc fragment
Put plainly: SPR, kinetic. On the procedure: (§2) Binding properties of some VHHs were also evaluated using Surface Plasmon Resonance (SPR) experiments. The human, mouse and rhesus monkey TfR (having respectively GeneBank number NM_003234.2, NM_011638, NC_041755.1) ectodomains were fused to the N-terminal end of a mouse IgG1 Fc fragment and the recombinant proteins were produced and purified in-house. Interaction of VHHs with the receptors was tested using a Biacore T200 (GE Healthcare). Receptors were immobilized on an HC 1500M or a CM5 sensor chip (Xantec) either directly or on an anti-mouse IgG previously immobilized. VHHs were injected over flowcell by using the single-cycle kinetic or the multiple-cycle kinetic methods.
(In SPR one partner is held on a chip, and binding of the other changes the refractive index at the surface.)

Assay [4] has as its target T4, rhesus monkey TfR ectodomain fused to a mouse IgG1 Fc fragment (rhesus monkey, UniProt I0FKY7 89-760).
T4 construct: extracellular domain; not shown: mouse IgG1 Fc fragment
Kind of assay: SPR, kinetic. On the procedure: as §2

In assay [5] the target is T3, human TfR ectodomain fused to a mouse …. Kind of assay: SPR, at equilibrium. The procedure:
as §2

The target in assay [6] is T4, rhesus monkey TfR ectodomain fused to a …. Kind of assay: SPR, at equilibrium. The procedure: as §2
The target in assay [7] is T1, mouse transferrin receptor (mTfR) fused …. Kind of assay: apparent Kd, flow cytometry, CHO cells. The procedure, abridged:
as §1

For assay [8], the target named is T5, rhesus monkey transferrin receptor (rhTfR) fused to EGFP, on CHO cells (rhesus monkey).
T5 construct: whole, on cells; also called rhesus monkey TfR
Kind of assay: apparent Kd, flow cytometry, CHO cells. The gist of the method:
as §1

T3 sequence (P02786 89-760): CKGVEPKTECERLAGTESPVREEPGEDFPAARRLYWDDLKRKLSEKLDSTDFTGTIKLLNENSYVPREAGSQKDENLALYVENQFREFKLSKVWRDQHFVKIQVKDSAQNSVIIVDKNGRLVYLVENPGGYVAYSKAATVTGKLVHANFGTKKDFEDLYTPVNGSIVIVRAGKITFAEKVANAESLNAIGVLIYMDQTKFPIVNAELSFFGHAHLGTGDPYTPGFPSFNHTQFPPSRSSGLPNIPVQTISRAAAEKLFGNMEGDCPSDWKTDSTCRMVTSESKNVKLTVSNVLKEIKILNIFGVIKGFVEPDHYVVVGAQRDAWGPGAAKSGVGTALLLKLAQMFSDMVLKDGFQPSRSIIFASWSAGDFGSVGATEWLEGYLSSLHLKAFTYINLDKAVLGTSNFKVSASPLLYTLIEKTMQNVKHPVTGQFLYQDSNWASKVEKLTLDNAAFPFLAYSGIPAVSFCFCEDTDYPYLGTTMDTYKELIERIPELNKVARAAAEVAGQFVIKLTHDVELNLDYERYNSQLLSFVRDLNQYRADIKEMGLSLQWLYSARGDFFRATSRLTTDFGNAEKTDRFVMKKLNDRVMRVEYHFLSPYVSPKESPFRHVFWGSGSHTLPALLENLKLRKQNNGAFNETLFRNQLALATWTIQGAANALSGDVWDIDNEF
T1 sequence (Q62351 whole entry, the tested form may be a part): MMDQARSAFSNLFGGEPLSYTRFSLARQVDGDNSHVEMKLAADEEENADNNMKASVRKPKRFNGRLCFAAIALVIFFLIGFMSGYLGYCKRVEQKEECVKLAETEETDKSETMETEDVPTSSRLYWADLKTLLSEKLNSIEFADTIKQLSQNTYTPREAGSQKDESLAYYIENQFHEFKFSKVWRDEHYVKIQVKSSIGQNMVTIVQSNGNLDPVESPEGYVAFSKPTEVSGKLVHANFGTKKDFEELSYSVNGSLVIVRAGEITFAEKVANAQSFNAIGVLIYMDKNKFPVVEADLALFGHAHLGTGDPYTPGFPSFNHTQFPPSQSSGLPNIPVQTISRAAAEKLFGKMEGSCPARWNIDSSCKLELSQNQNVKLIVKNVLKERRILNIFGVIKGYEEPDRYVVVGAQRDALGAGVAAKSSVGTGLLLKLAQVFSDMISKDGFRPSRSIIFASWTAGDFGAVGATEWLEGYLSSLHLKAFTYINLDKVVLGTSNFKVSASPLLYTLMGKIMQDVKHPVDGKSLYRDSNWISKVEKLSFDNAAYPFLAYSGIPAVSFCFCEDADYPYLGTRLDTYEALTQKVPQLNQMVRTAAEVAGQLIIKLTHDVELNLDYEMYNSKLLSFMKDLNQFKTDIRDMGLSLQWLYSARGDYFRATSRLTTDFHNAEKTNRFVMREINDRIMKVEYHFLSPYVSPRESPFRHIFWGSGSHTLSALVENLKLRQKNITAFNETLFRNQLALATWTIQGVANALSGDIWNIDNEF

B1: E2 (VHH)
VHH: QVQLVQSGGGLVQAGGSLRLSCAASGSIFSDITLAWHRQIPGKEREWVAGISRSGSPSYRDSVKGRFTISRDNAKNTVFLQMNSLEPEDTGVYYCYSRGYWGQGTQVTVSS
Consider B1, for which the binding result in assay [1] is given as “no binding”. Moreover, the Kd in assay [2] is 2.5 nM.

B2: C5^neg (control) (VHH)
VHH: EVQLVESGGGVVQPGGSLKLSCVASGTDFSINFIRWYRQAPGKQREFVAGFTATGNTNYADSMKGRFTISRDNTKNAVYLQIDSLKPEDTAVYYCAMADKWGQGTQVTVSS
notes: negative control of C5 with 2 alanines in CDR3
For B2, the binding result in assay [1] is on record as “no binding”.

B3: H7 (VHH)
VHH: EVQLVESGGGLVQAGGSLRLSCTASGRPISDYPMGWFRRAPGKDRELVASISRTGDGTYYANSMKERFTISRDNAQNTVSLQISSLKPEDTAVYYCGAGINPTRYWGQGTQVTVSS
A word on the koff: it is a measure of how fast the partners let go of each other. Usually kon stands for the second-order rate constant of association. In assay [3], B3 had a Kd of 1.3 nM, a koff of 0.00147 s⁻¹ and a kon of 1.13e+06 M⁻¹ s⁻¹. Further, the binding result in assay [1] is “no binding”.

B4: B8^V34 (VHH)
VHH: EVQLVESGGGVVQPGGSLRLSCAASGEIRSINFMRWYRQAPGKQREWVAGFTRDGSTNYPDIAKGRFTISRDNAKNTVYLQIDSLKPEDTAVYYCYMLDTWGQGTQVTVSS
For B4, the Kd was found to be 33.3 nM in assay [3]; 51.5 nM in assay [4]; 32.4 nM in assay [5]; 49.4 nM in assay [6]; 13 nM in assay [2]; 1070 nM in assay [7]. Besides, the Kd in assay [8] came out at 68 nM. In addition, the koff in assay [3] stood at 0.0244 s⁻¹; in assay [4] it was 0.102 s⁻¹. Moreover, the kon turned out to be 733000 M⁻¹ s⁻¹ in assay [3] and 1.97e+06 M⁻¹ s⁻¹ in assay [4].

B5: B8^V24 (VHH)
VHH: EVQLVESGGGVVQPGGSLRLSCAASGEIFSINFMEWYRQAPGKQREWVAGFTRDGSTNYPDSAKGRFTISRDNAKNTVYLQIDSLKPEDTAVYYCYMLDTWGQGTQVTVSS
Regarding B5, the binding result in assay [1] is recorded as “no binding”. In addition, the Kd in assay [2] was 1010 nM.

B6: B8^V38 (VHH)
VHH: EVQLVESGGGVVQPGGSLRLSCAASGEIRSINFMRWYRQAPGKQREWVAGFTRTGSTNYPDSAKGRFTISRDNAKNTVYLQIDSLKPEDTAVYYCYMLDTWGQGTQVTVSS
For B6, the Kd was found to be 32.2 nM in assay [3]; 46.3 nM in assay [4]; 35.8 nM in assay [5]; 55.4 nM in assay [6]; 23 nM in assay [2]; 1780 nM in assay [7]. For the same molecule, the Kd in assay [8] is 123 nM. For the same molecule, the koff was 0.0192 s⁻¹ in assay [3] and 0.0255 s⁻¹ in assay [4]. For the same molecule, the kon in assay [3] turned out to be 596000 M⁻¹ s⁻¹; in assay [4], 549000 M⁻¹ s⁻¹.

B7: B8^V37 (VHH)
VHH: EVQLVESGGGVVQPGGSLRLSCAASGEIFSINFMRWYRQAPGKQREWVAGFTRDGSTNYPDSAKGRFTISEDNAKNTVYLQIDSLKPEDTAVYYCYMLRTWGQGTQVTVSS
B7: the Kd in assay [3] stood at 70.5 nM; in assay [4] it was 148 nM; in assay [5] it was 75.5 nM; in assay [6], 175 nM; in assay [2], 97 nM; in assay [7], 582 nM. In addition, the Kd in assay [8] was determined as 334 nM. Further, the koff in assay [3] was 0.0493 s⁻¹; in assay [4], 0.103 s⁻¹. The on-rate constant (kon) in assay [3] is 699000 M⁻¹ s⁻¹; in assay [4] it was 700000 M⁻¹ s⁻¹.

B8: B8^V35 (VHH)
VHH: EVQLVESGGGVVQPGGSLRLSCAASGEIRSINFMRWYRQAPGKQREWVAGFTRDGSLNYPDSAKGRFTISRDNAKNTVYLQIDSLKPEDTAVYYCYMLDTWGKGTQVTVSS
With B8, the Kd in assay [3] is 20.6 nM; in assay [4], 33.7 nM; in assay [5], 23.9 nM; in assay [6], 34.4 nM; in assay [2], 7.1 nM; in assay [7], 513 nM. Further, the Kd in assay [8] amounted to 23 nM. Also, the results for the koff in assay [3] and in assay [4] were 0.0143 s⁻¹ and 0.0303 s⁻¹, respectively. For the same molecule, the kon in assay [3] came out at 698000 M⁻¹ s⁻¹; in assay [4], 898000 M⁻¹ s⁻¹.

B9: B8^V40 (VHH)
VHH: EVQLVESGGGVVQPGGSLRLSCAASGEIKSINFMRWYRQAPGKQREWVSGFTRDGSTNYPDSAKGRFTISRDNAKNTVYLQIDSLKPEDTAVYYCYMLDTWGQGTQVTVSS
Regarding B9, the Kd in assay [3] stood at 42.1 nM; in assay [4] it was 34.8 nM; in assay [5], 42.5 nM; in assay [6], 39.8 nM; in assay [2], 42 nM; in assay [7] it was 1580 nM. The Kd in assay [8] came out at 69 nM. Besides, the koff in assay [3] is 0.0283 s⁻¹; in assay [4] it was 0.02 s⁻¹. Further, the values for the kon in assay [3] and in assay [4] were 672000 M⁻¹ s⁻¹ and 575000 M⁻¹ s⁻¹, respectively.

B10: B8^V39 (VHH)
VHH: EVQLVESGGGVVQPGGSLRLSCAASGEIFKINFMRWYRQAPGKQREWVAGFTRDGSTNYPDSAKGRFTISRDNAKNTVYLQIDSLKPEDTAVYYCYMLDTWGQGTQVTVSS
B10: the Kd was determined as 39.1 nM in assay [3]; 90.5 nM in assay [4]; 40.3 nM in assay [5]; 93.3 nM in assay [6]; 16 nM in assay [2]; 1290 nM in assay [7]. Further, the Kd in assay [8] stood at 200 nM. Moreover, the koff in assay [3] came to 0.0175 s⁻¹; in assay [4], 0.0327 s⁻¹. Besides, the results for the kon in assay [3] and in assay [4] were 448000 M⁻¹ s⁻¹ and 362000 M⁻¹ s⁻¹, respectively.

B11: VHH C (B6) (VHH)
VHH: EVQLVESGGGLVQPGGSLRLSCTASGGPIEQYPMGWFRRAPGKERELVASISRSGDGTYYAISSVKGRFTISRDNAENTVFLQMNSLKPDDTAVYYCGAGINPTKIWGQGTQVTVSS
As for B11, in assay [3], the Kd came to 0.659 nM, the koff is 0.00121 s⁻¹ and the kon stood at 1.73e+06 M⁻¹ s⁻¹. The binding result in assay [1] is recorded as “no binding”. Besides, the Kd in assay [2] is 2.1 nM.

B12: B6^V3 (VHH)
VHH: EVQLVESGGGLVQPGGSLRLSCTASGGPIEQYPMGWFRRAPGKERELVASSSRSGDGTYYAISSVKGRFTISRDNAENTVFLQMNSLKPDDTAVYYCGAGINPTKIWGQGTQVTVSS
As to B12, in assay [1], the binding result is given as “no binding”. The Kd in assay [2] is 2.6 nM.

B13: B6^V4 (VHH)
VHH: EVQLVESGGGLVQPGGSLRLSCTASGGPIEQYPMGWFRRAPGKERESVASISRSGDGTYYAISSVKGRFTISRDNAENTVFLQMNSLKPDDTAVYYCGAGINPTKIWGQGTQVTVSS
For the molecule B13, the binding result in assay [1] is reported as “no binding”. Also, the Kd in assay [2] stood at 5.9 nM.

B14: B6^V2 (VHH)
VHH: EVQLVESGGGLVQPGGSLRLSCTASGGPIEQYPMGWFRRAPGKERELVASFSRSGDGTYYAISSVKGRFTISRDNAENTVFLQMNSLKPDDTAVYYCGAGINPTKIWGQGTQVTVSS
Consider B14, for which the binding result in assay [1] was “no binding”. Moreover, the Kd in assay [2] worked out at 643 nM.

B15: B6^V1 (VHH)
VHH: EVQLVESGGGLVQPGGSLRLSCTASGGPIEQYPMGWFRRAPGKERNLVASISRSGDGTYYAISSVKGRFTISRDNAENTVFLQMNSLKPDDTAVYYCGAGINPTKIWGQGTQVTVSS
On to B15, for which, in assay [1], the binding result is “no binding”. In assay [2], the Kd worked out at 2.3 nM.

The values are drawn from patent publication US20230414780A1 (VECT HORUS, published 2023).
